The values below come from article PMC3463842 (The EMBO Journal, 2012).

The target of this assay is ubiquitin^TAMRA (C-terminal TAMRA-labelled ubiquitin) (UniProt P0CG48 1-76, TAMRA label at the C-terminus). Description: fluorescence polarisation.

B1: HOIP^RBR-LDD (699–1072), as used in the FP assay (domain or fragment)
chain: CAVCGWALPHNRMQALTSCECTICPDCFRQHFTIALKEKHITDMVCPACGRPDLTDDTQLLSYFSTLDIQLRESLEPDAYALFHKKLTEGVLMRDPKFLWCAQCSFGFIYEREQLEATCPQCHQTFCVRCKRQWEEQHRGRSCEDFQNWKRMNDPEYQAQGLAMYLQENGIDCPKCKFSYALARGGCMHFHCTQCRHQFCSGCYNAFYAKNKCPEPNCRVKKSLHGHHPRDCLFYLRDWTALRLQKLLQDNNVMFNTEPPAGARAVPGGGCRVIEQKEVPNGLRDEACGKETPAGYAGLCQAHYKEYLVSLINAHSLDPATLYEVEELETATERYLHVRPQPLAGEDPPAYQARLLQKLTEEVPLGQSIPRRRK
Molecule B1 had a Kd of 118 µM.

B2: HOIP^RBR-LDD C930A (domain or fragment)
chain: CAVCGWALPHNRMQALTSCECTICPDCFRQHFTIALKEKHITDMVCPACGRPDLTDDTQLLSYFSTLDIQLRESLEPDAYALFHKKLTEGVLMRDPKFLWCAQCSFGFIYEREQLEATCPQCHQTFCVRCKRQWEEQHRGRSCEDFQNWKRMNDPEYQAQGLAMYLQENGIDCPKCKFSYALARGGCMHFHCTQCRHQFCSGCYNAFYAKNKCPEPNCRVKKSLHGHHPRDALFYLRDWTALRLQKLLQDNNVMFNTEPPAGARAVPGGGCRVIEQKEVPNGLRDEACGKETPAGYAGLCQAHYKEYLVSLINAHSLDPATLYEVEELETATERYLHVRPQPLAGEDPPAYQARLLQKLTEEVPLGQSIPRRRK
In the case of B2, the Kd came out at 83 µM. The Kd values of the last two molecules are within 1.5-fold of each other.
